The target in experiment [1] is biotinylated recombinant SARS-CoV-2 wild type spike RBD (UniProt P0DTC2). Particulars: n = 2 replicates; parent: est. 100; read off a plot.
The target is the same in experiment [2]. To be noted: n = four independent experiments; read off a plot.
The target is the same in experiment [3]. Particulars: n = 2 replicates; parent: est. 110; read off a plot.
Experiment [4] shares this target. To be noted: n = 2 replicates; parent: est. 100; read off a plot. The source holds these as a separate data set.

Where two headings read alike, the source gives them in different places.

Consider “REGN10987 scFv displayed on the surface of HEK 293T cells D54I”, for which the percent of parent (Relative fluorescence) in experiment [1] is 110. Also, in experiment [2], the enrichment was 3.2 log2(FC).
For the substance “REGN10987 scFv displayed on the surface of HEK 293T cells S97Y; D54F; N57H”, the percent of parent (Relative fluorescence) in experiment [3] stood at 110.
Consider “REGN10987 scFv displayed on the surface of HEK 293T cells S97Y; D54L”, for which the percent of parent (Relative fluorescence) in experiment [3] stood at 220.
Same read-out and setting: for “REGN10987 scFv displayed on the surface of HEK 293T cells S97Y; D54Y” the value was 130; for “REGN10987 scFv displayed on the surface of HEK 293T cells S97Y; D54T”, 220.
Consider “REGN10987 scFv displayed on the surface of HEK 293T cells D54L”, for which the percent of parent (Relative fluorescence) in experiment [1] was 130.
As for “REGN10987 scFv displayed on the surface of HEK 293T cells S97Y; D54F”, the percent of parent (Relative fluorescence) in experiment [3] was found to be 100.
Turning to “REGN10987 scFv displayed on the surface of HEK 293T cells D54F”, the percent of parent (Relative fluorescence) in experiment [1] worked out at 97.
“REGN10987 scFv displayed on the surface of HEK 293T cells L106N; N57F”: in experiment [4], the percent of parent (Relative fluorescence) amounted to 120.
For the substance “REGN10987 scFv displayed on the surface of HEK 293T cells L106N; N57T”, the percent of parent (Relative fluorescence) in experiment [4] turned out to be 130.
“REGN10987 scFv displayed on the surface of HEK 293T cells S97Y; D54Y; N57H”: the percent of parent (Relative fluorescence) in experiment [3] stood at 160.
Same read-out and setting: with “REGN10987 scFv displayed on the surface of HEK 293T cells S97Y; N57H” the figure was 200.
“REGN10987 scFv displayed on the surface of HEK 293T cells S97Y”: the percent of parent (Relative fluorescence) in experiment [1] worked out at 150.
Same read-out and setting: with “REGN10987 scFv displayed on the surface of HEK 293T cells N57H” the figure was 120.
For the substance “REGN10987 scFv displayed on the surface of HEK 293T cells S97Y; D54I”, in experiment [3], the percent of parent (Relative fluorescence) was determined as 220.
For the substance “REGN10987 scFv displayed on the surface of HEK 293T cells D54Y”, the percent of parent (Relative fluorescence) in experiment [1] came out at 82.
As to “REGN10987 scFv displayed on the surface of HEK 293T cells D54T”, in experiment [1], the percent of parent (Relative fluorescence) came to 120.
As for “REGN10987 scFv displayed on the surface of HEK 293T cells S97Y; D54T; N57H”, the percent of parent (Relative fluorescence) in experiment [3] came to 240.

For the origin of these results see publication PMC9891525.
